Earlier results as cited in PMC9434060 (Heliyon, 2022).

Conditions: hIntL-1, ligand not given; ref [10]

B1: hIntL-1: Human intelectin-1, disulfide-linked trimeric lectin (protein, UniProt Q8WWA0 19-298, looked up)
Intelectin-1: TDEANTYFKEWTCSSSPSLPRSCKEIKDECPSAFDGLYFLRTENGVIYQTFCDMTSGGGGWTLVASVHENDMRGKCTVGDRWSSQQGSKAVYPEGDGNWANYNTFGSAEAATSDDYKNPGYYDIQAKDLGIWHVPNKSPMQHWRNSSLLRYRTDTGFLQTLGHNLFGIYQKYPVKYGEGKCWTDNGPVIPVVYDFGDAQKTASYYSPYGQREFTAGFVQFRVFNNERAANALCAGMRVTGCNTEHHCIGGGGYFPEASPQQCGDFSGFDWSGYGTHVGYS
- Kd: 85 ± 14 nM
